Results as given in the supplement of paper PMC7877785.
± gives the uncertainty stated by the source.

Assay: self-splicing fitness, log relative to wild type (ln ratio); higher = more splicing; Tetrahymena group I intron in knt gene, E. coli kanamycin selection, DiMSum; sequences stand for … in CUCUCU…GGAGGGAAAAGUUAUCAGGCAUGCACCUGGUAGCUAGUCUUUAAACCAAUAGAUUGCAUCGGUUUAAAAGGCAAGACCGUCAAAUUGCGGGAAAGGGGUCAACAGCCGUUCAGUACCAAGUCUCAGGGGAAACUUUGAGAUGGCCUUGCAAAGGGUAUGGUAAUAAGCUGACGGACAUGGUCCUAACCACGCAGCCAAGUCCUAAGUCAACAGAUCUUCUGUUGAUAUGGAUGCAGUUCACAGACUAAAUGUCGGUCGGGGAAGAUGUAUUCUUCUCAUAAGAUAUAGUCGGACCUCUCCUUAAUGGGAGCUAGCGGAUGAAGUGAUGCAACACUGGAGCCGCUGGGAACUAAUUUGUAUGCGAAAGUAUAUUGAUUAGUUUUGGAGUACUCGUGGUCG
How it was run: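 Six replicate transformations of E. coli BL21(DE3) with a pET-22b(+) library were grown overnight at 37°C or 30°C. The library randomised all eight P1ex-region intron nucleotides, the intron lying in the knt kanamycin-resistance gene, and plates were LB agar with or without 25 μg/mL kanamycin plus 100 μg/mL carbenicillin, 50 μM IPTG and 0.2% rhamnose. Pooled colonies were amplicon-sequenced on an Illumina HiSeq 2500, and fitness is the DiMSum error-weighted combination of wild-type-normalised replicate fold changes, kanamycin versus none.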

Sequence | self-splicing fitness (ln) (30 °C) | self-splicing fitness (ln) (37 °C)
UUGUAGCAAUAUUACGACAC | -1.44 ± 0.22 | -1.48 ± 0.32
UUGUAGCAAUAUUACGACGG | -0.599 ± 0.16 | -1.63 ± 0.17
UUGUAGCAAUAUUACGAGAA | -1.54 ± 0.3 | -1.42 ± 0.3
UUGUAGCAAUAUUACGAGAG | -2.07 ± 0.3 | –
UUGUAGCAAUAUUACGAGAU | -2.41 ± 0.33 | -2.32 ± 0.31
UUGUAGCAAUAUUACGAGCC | -1.8 ± 0.27 | -1.78 ± 0.34
UUGUAGCAAUAUUACGAGGG | – | -1.87 ± 0.4
UUGUAGCAAUAUUACGAUCA | -0.608 ± 0.19 | -0.00925 ± 0.14
UUGUAGCAAUAUUACGCCGA | -0.677 ± 0.23 | -0.628 ± 0.24
UUGUAGCAAUAUUACGCCGG | -0.988 ± 0.16 | -0.179 ± 0.27
UUGUAGCAAUAUUACGGAAA | -2.55 ± 0.39 | -1.2 ± 0.22
UUGUAGCAAUAUUACGGCAA | -0.208 ± 0.12 | -0.27 ± 0.16
UUGUAGCAAUAUUACGGCUA | – | 0.21 ± 0.5
UUGUAGCAAUAUUACGGCUG | -2.35 ± 0.23 | -0.373 ± 0.22
UUGUAGCAAUAUUACGGGAG | – | -2.84 ± 0.4
UUGUAGCAAUAUUACGGUGA | -1.11 ± 0.093 | -0.318 ± 0.097
UUGUAGCAAUAUUACGGUUU | -3.53 ± 0.24 | -1.79 ± 0.17
UUGUAGCAAUAUUACGUACC | -2.08 ± 0.16 | -1.29 ± 0.17
UUGUAGCAAUAUUACGUAGA | -2.75 ± 0.13 | -1.23 ± 0.12
UUGUAGCAAUAUUACGUCUA | -0.856 ± 0.086 | -0.738 ± 0.11
UUGUAGCAAUAUUACGUCUC | -3.54 ± 0.17 | -1.75 ± 0.18
UUGUAGCAAUAUUACGUGAA | -1.87 ± 0.14 | -0.614 ± 0.14

Sequence | self-splicing fitness (ln) (30 °C) | self-splicing fitness (ln) (37 °C)
UUGUAGCAAUAUUACGUGUG | -1.28 ± 0.17 | -1.17 ± 0.11
UUGUAGCAAUAUUACGUUGA | -2.95 ± 0.29 | -0.294 ± 0.19
UUGUAGCAAUAUUACGUUGC | – | -2.29 ± 0.46
UUGUAGCAAUAUUACGUUUC | -3.69 ± 0.46 | –
UUUAAGCAAUAUUACGAAAA | -0.789 ± 0.19 | -1.33 ± 0.2
UUUAAGCAAUAUUACGACUA | 0.0508 ± 0.11 | -0.0992 ± 0.096
UUUAAGCAAUAUUACGAGAA | -1.62 ± 0.33 | -0.298 ± 0.28
UUUAAGCAAUAUUACGAGAC | -2.33 ± 0.48 | -2.63 ± 0.33
UUUAAGCAAUAUUACGAGGA | -1.85 ± 0.13 | -1.22 ± 0.15
UUUAAGCAAUAUUACGAUGG | -1.05 ± 0.11 | -0.525 ± 0.14
UUUAAGCAAUAUUACGCAGA | -1.64 ± 0.16 | -1.93 ± 0.14
UUUAAGCAAUAUUACGCAUC | -2.75 ± 0.36 | -2.25 ± 0.32
UUUAAGCAAUAUUACGCCGA | -0.292 ± 0.13 | 0.0683 ± 0.15
UUUAAGCAAUAUUACGCUCU | -1.26 ± 0.098 | -0.539 ± 0.11
UUUAAGCAAUAUUACGGCAA | -0.171 ± 0.093 | 0.00377 ± 0.11
UUUAAGCAAUAUUACGGCGA | 0.000504 ± 0.075 | 0.503 ± 0.1
UUUAAGCAAUAUUACGGCUA | -0.342 ± 0.084 | 0.291 ± 0.1
UUUAAGCAAUAUUACGGUCU | -2.5 ± 0.14 | -1.66 ± 0.15
UUUAAGCAAUAUUACGUCAA | -1.43 ± 0.16 | -0.273 ± 0.14
UUUAAGCAAUAUUACGUCCA | -1.08 ± 0.22 | -0.324 ± 0.27
UUUAAGCAAUAUUACGUGCA | -1.06 ± 0.12 | -0.0552 ± 0.15
UUUAAGCAAUAUUACGUUAA | -1.68 ± 0.23 | -1.38 ± 0.18
